Test [1] concerns the target PrS-SpeMreB1 WT (monomeric gel-filtration fraction) (Spiroplasma eriocheiris). In words: sedimentation assay (ultracentrifugation); buffer S with 2 mM AMPPNP; 3 h at room temperature; 100,000 rpm, 23 °C, 90 min; no linear fit possible (small pellet amounts).
Test [2] shares this target. Briefly: sedimentation assay (ultracentrifugation); buffer S with 2 mM ADP; 3 h at room temperature; 100,000 rpm, 23 °C, 90 min; critical concentration as x-intercept of the linear fit.
Test [3] shares this target. Briefly: sedimentation assay (ultracentrifugation); buffer S (20 mM Tris-HCl pH 8.0, 1 M NaCl, 200 mM L-arginine-HCl, 5 mM DTT, 2 mM MgCl2) with 2 mM ATP; 3 h at room temperature; 100,000 rpm, 23 °C, 90 min; critical concentration as x-intercept of the linear fit.
A further test deals with T1, SpeMreB5 (Spiroplasma eriocheiris, UniProt A0A0H3XIQ3).
T1 construct: gene mreB5; full-length SpeMreB5, 6xHis tag, pCold-15b, E. coli BL21(DE3), codon-optimized
T1 sequence (A0A0H3XIQ3 1-350): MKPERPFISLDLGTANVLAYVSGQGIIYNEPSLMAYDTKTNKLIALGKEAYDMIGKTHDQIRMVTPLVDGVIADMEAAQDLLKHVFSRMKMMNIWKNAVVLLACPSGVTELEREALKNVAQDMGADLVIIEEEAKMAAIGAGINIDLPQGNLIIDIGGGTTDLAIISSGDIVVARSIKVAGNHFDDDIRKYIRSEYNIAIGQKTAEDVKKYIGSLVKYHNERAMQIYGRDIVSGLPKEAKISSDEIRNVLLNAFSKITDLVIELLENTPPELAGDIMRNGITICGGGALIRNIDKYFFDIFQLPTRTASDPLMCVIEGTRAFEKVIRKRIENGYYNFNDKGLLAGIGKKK
In words: liposome cosedimentation (loss of membrane binding with nucleotide). As to conditions: 1 mM nucleotide, SpiroLipid liposomes, 200 mM KCl, 1 mM MgCl2, pH 7.5.

For test [4], the target named is PrS-SpeMreB1 T164A (Spiroplasma eriocheiris). Briefly: sedimentation assay (ultracentrifugation); buffer S (20 mM Tris-HCl pH 8.0, 1 M NaCl, 200 mM L-arginine-HCl, 5 mM DTT, 2 mM MgCl2) with 2 mM ATP; 3 h at room temperature; 100,000 rpm, 23 °C, 90 min; critical concentration as x-intercept of the linear fit.
The target in the next test is T2, PrS-SpeMreB1 (Spiroplasma eriocheiris, UniProt A0A0H3XI00).
T2 construct: gene mreB1; full-length SpeMreB1; N-terminal 6xHis, two ProteinS (M. xanthus) solubilization tags, factor Xa site; C-terminal 6xHis; tags kept; 560 residues with tags; E. coli BL21(DE3), codon-optimized; monomeric gel filtration fraction
T2 sequence (A0A0H3XI00 1-346): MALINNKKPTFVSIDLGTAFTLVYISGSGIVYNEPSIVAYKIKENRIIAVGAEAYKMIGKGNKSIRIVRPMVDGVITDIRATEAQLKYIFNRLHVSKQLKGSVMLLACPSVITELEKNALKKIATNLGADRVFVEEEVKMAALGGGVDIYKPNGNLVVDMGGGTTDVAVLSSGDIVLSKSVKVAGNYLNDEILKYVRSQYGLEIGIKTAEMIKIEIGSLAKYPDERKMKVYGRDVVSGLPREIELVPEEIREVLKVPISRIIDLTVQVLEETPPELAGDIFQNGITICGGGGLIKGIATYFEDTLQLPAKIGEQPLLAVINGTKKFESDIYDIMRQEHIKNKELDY
In words: sedimentation assay of polymerization. In kind it is biochemical. As to conditions: 2 mM ADP, 1 M NaCl, 2 mM MgCl2, pH 8.0, room temperature; polymerizes with nucleotide, not nucleotide-free.

This note sets out measurements from publication PMC12337190, “A bacterial actin with high ATPase activity regulates the polymerization of a partner MreB isoform essential for Spiroplasma swimming motility” (The Journal of Biological Chemistry, 2025).

For the compound “PrS-SpeMreB1 WT (monomeric gel-filtration fraction) (natural protein)”, the results for the critical concentration (CC) for polymerization in test [1], in test [2] and in test [3] were more than 7 µM, 3.8 µM and 0.41 µM, respectively. For the compound `Nc1ncnc2c1ncn2[C@@H]1O[C@H](COP(=O)(O)OP(=O)(O)OP(=O)(O)O)[C@@H](O)[C@H]1O` [ATP], on SpeMreB5, the “liposome cosedimentation (loss of membrane binding with nucleotide)” value is “SpeMreB5 did not bind to the liposomes in the presence of nucleotides”. PrS-SpeMreB1 T164A (natural protein) had a critical concentration (CC) for polymerization in test [4] of 3 µM. As to `Nc1ncnc2c1ncn2[C@@H]1O[C@H](COP(=O)(O)OP(=O)(O)NP(=O)(O)O)[C@@H](O)[C@H]1O` [AMPPNP], on SpeMreB5, the “liposome cosedimentation (loss of membrane binding with nucleotide)” value is given as “SpeMreB5 did not bind to the liposomes in the presence of nucleotides”.

For `Nc1ncnc2c1ncn2[C@@H]1O[C@H](COP(=O)(O)OP(=O)(O)O)[C@@H](O)[C@H]1O` [ADP], on PrS-SpeMreB1, the “sedimentation assay of polymerization” value is “PrS-SpeMreB1 was less polymerized in the presence of ADP”. Moreover, the “liposome cosedimentation (loss of membrane binding with nucleotide)” value at SpeMreB5 was “SpeMreB5 did not bind to the liposomes in the presence of nucleotides”.
